Target: T1, CusB (E. coli, UniProt P77239 29-407)
T1 sequence (looked up): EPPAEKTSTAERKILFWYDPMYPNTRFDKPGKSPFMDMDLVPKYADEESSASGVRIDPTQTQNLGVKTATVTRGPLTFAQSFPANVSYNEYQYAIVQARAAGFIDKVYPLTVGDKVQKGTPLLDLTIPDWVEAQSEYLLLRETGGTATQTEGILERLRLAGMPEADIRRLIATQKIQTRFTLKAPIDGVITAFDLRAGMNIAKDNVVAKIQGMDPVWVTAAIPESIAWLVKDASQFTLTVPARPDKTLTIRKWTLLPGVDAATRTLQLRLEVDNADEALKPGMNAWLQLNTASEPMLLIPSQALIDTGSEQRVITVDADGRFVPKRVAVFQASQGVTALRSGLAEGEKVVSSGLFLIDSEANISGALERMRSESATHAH
Test: NMR 15N relaxation

B1: CusF (natural protein, E. coli, UniProt P77214 22-110, looked up)
chain: ANEHHHETMSEAQPQVISATGVVKGIDLESKKITIHHDPIAAVNWPEMTMRFTITPQTKMSEIKTGDKVAFNFVQQGNLSLLQDIKVSQ
  Kd: ~160 µM
